These results are taken from paper PMC7567794 (Scientific Reports, 2020).

Changes are numbered by the printed parent chain. Numbers in names are those of the source.

B1: D3h44 Fab L-H91E (Fab, V domains shown)
VH: EVQLVESGGGLVQPGGSLRLSCAASGFNIKEYYMHWVRQAPGKGLEWVGLIDPEQGNTIYDPKFQDRATISADNSKNTAYLQMNSLRAEDTAVYYCARDTAAYFDYWGQGTLVTVSS
VL: DIQMTQSPSSLSASVGDRVTITCRASRDIKSYLNWYQQKPGKAPKVLIYYATSLAEGVPSRFSGSGSGTDYTLTISSLQPEDFATYYCLQEGESPWTFGQGTKVEIK
notes: as the heavy chain of m2 (PDB 1JPS chain H); as the light chain of m2 (PDB 1JPS chain L) with the stated change; Tag as for m2; source: ExpiCHO, purified (Ni-NTA, SEC)
B2: D3h44 Fab H-A101S/H-A102H double-point mutant (Fab, V domains shown)
VH: B1 VH with A101S, A102H
VL: B1 VL with E91H
notes: as the heavy chain of m2 (PDB 1JPS chain H) with the stated changes; as the light chain of m2 (PDB 1JPS chain L); Tag as for m2; source: ExpiCHO, purified (Ni-NTA, SEC)
B3: D3h44 Fab H-K30Q/H-E54H double-point mutant (Fab, V domains shown)
VH: B1 VH with K30Q, E54H
VL: B1 VL with E91H
notes: as for B2
B4: D3h44 Fab L-N34D/L-H91S double-point mutant (Fab, V domains shown)
VH: B1 VH
VL: B1 VL with N34D, E91S
notes: as the heavy chain of m2 (PDB 1JPS chain H); as the light chain of m2 (PDB 1JPS chain L) with the stated changes; Tag as for m2; source: ExpiCHO, purified (Ni-NTA, SEC)
B5: D3h44 Fab H-K30Q (Fab, V domains shown)
VH: B1 VH with K30Q
VL: B1 VL with E91H
notes: as the heavy chain of m2 (PDB 1JPS chain H) with the stated change; as the light chain of m2 (PDB 1JPS chain L); Tag as for m2; source: ExpiCHO, purified (Ni-NTA, SEC)
B6: D3h44 Fab L-H91N (Fab, V domains shown)
VH: B1 VH
VL: B1 VL with E91N
notes: as for B1
B7: D3h44 Fab H-I59H (Fab, V domains shown)
VH: B1 VH with I59H
VL: B1 VL with E91H
notes: as for B5
B8: D3h44 Fab H-Y33Q/H-A101R double-point mutant (Fab, V domains shown)
VH: B1 VH with Y33Q, A101R
VL: B1 VL with E91H
notes: as for B2
B9: D3h44 Fab H-A101V (Fab, V domains shown)
VH: B1 VH with A101V
VL: B1 VL with E91H
notes: as for B5
B10: D3h44 Fab L-H91S (Fab, V domains shown)
VH: B1 VH
VL: B1 VL with E91S
notes: as for B1
B11: D3h44 Fab L-N34D (Fab, V domains shown)
VH: B1 VH
VL: B1 VL with N34D, E91H
notes: as for B1
B12: D3h44 Fab L-H91Q (Fab, V domains shown)
VH: B1 VH
VL: B1 VL with E91Q
notes: as for B1
B13: D3h44 Fab H-N57Y (Fab, V domains shown)
VH: B1 VH with N57Y
VL: B1 VL with E91H
notes: as for B5

T1 sequence (P13726 33-251): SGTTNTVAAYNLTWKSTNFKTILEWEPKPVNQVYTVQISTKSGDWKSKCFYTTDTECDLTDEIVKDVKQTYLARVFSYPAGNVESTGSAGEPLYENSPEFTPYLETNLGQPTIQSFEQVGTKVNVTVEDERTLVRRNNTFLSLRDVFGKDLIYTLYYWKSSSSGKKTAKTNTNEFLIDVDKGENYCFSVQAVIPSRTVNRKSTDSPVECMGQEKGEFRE

The test concerns the target T1, tissue factor (S33 to E251) (Homo sapiens, UniProt P13726).
T1 construct: tissue factor (TF), residues S33 to E251; the antigen of the antibody D3h44 in PDB 1JPS; The tag was removed with Ulp1; tag-free TF was used; Antigen residues named in the text (S202, K169, P194, I152) follow the numbering of PDB 1JPS, not that of the construct limits; also called TF; antigen; source: E. coli BL21 (DE3), purified (Ni-NTA, SEC); not shown: His6, N-terminal, cleaved; SUMO, …
In words: SPR; Biacore 8K; TF immobilised on a CM5 chip by amine coupling (450-750 response units); Fab as analyte; single-cycle kinetics, association 120 s, dissociation 1800 s, no regeneration; PBS with 0.005% Tween-20; three measurements. Conditions: both partners purified.
In turn, B1 came in with a dissociation constant (Kd) of 0.02 nM, a koff of 2.7e-05 s⁻¹ and an on-rate constant (kon) of 1.4e+06 M⁻¹ s⁻¹.

Molecule B2 displayed a dissociation constant Kd of 0.15 nM, an off-rate (koff) of 0.00018 s⁻¹ and a kon of 1.2e+06 M⁻¹ s⁻¹.

With B3, binding was characterised by a dissociation constant (Kd) of 0.029 nM, the koff is 2.6e-05 s⁻¹ and the kon was 940000 M⁻¹ s⁻¹.

In turn, B4 yielded an equilibrium dissociation constant (Kd) of 0.025 nM, a dissociation rate constant (koff) of 3e-05 s⁻¹ and an on-rate (kon) of 1.2e+06 M⁻¹ s⁻¹.

Molecule B5 came in with an equilibrium dissociation constant (Kd) of 0.097 nM, a koff of 0.00014 s⁻¹ and an on-rate constant (kon) of 1.5e+06 M⁻¹ s⁻¹.

Molecule B6 gave a Kd of 0.2 nM, a koff of 0.00026 s⁻¹ and a kon of 1.3e+06 M⁻¹ s⁻¹.

The molecule B7 gave a Kd of 15 nM, a koff of 0.038 s⁻¹ and a kon of 3.6e+06 M⁻¹ s⁻¹.

Take B8: the binding result is “no binding”.

For the molecule B9, the affinity, expressed as Kd, was 0.14 nM; the koff was found to be 0.00018 s⁻¹; the kon came out at 1.3e+06 M⁻¹ s⁻¹.

B10 came in with a Kd of 17 nM, an off-rate (koff) of 0.059 s⁻¹ and a kon of 1.6e+07 M⁻¹ s⁻¹.

B11 yielded a Kd of 0.31 nM, an off-rate (koff) of 0.00062 s⁻¹ and a kon of 2e+06 M⁻¹ s⁻¹.

Molecule B12 yielded a Kd of 0.23 nM, a koff of 0.00038 s⁻¹ and an on-rate constant (kon) of 1.7e+06 M⁻¹ s⁻¹.

On to B13, for which binding was put at a Kd of 0.015 nM, the koff amounted to 1.8e-05 s⁻¹ and the association rate constant (kon) worked out at 1.3e+06 M⁻¹ s⁻¹.
